Test results: patent US20070093443A1

Molecular target: T1, alpha-2 macroglobulin (in human plasma) (human) (UniProt P01023)
T1 sequence (looked up): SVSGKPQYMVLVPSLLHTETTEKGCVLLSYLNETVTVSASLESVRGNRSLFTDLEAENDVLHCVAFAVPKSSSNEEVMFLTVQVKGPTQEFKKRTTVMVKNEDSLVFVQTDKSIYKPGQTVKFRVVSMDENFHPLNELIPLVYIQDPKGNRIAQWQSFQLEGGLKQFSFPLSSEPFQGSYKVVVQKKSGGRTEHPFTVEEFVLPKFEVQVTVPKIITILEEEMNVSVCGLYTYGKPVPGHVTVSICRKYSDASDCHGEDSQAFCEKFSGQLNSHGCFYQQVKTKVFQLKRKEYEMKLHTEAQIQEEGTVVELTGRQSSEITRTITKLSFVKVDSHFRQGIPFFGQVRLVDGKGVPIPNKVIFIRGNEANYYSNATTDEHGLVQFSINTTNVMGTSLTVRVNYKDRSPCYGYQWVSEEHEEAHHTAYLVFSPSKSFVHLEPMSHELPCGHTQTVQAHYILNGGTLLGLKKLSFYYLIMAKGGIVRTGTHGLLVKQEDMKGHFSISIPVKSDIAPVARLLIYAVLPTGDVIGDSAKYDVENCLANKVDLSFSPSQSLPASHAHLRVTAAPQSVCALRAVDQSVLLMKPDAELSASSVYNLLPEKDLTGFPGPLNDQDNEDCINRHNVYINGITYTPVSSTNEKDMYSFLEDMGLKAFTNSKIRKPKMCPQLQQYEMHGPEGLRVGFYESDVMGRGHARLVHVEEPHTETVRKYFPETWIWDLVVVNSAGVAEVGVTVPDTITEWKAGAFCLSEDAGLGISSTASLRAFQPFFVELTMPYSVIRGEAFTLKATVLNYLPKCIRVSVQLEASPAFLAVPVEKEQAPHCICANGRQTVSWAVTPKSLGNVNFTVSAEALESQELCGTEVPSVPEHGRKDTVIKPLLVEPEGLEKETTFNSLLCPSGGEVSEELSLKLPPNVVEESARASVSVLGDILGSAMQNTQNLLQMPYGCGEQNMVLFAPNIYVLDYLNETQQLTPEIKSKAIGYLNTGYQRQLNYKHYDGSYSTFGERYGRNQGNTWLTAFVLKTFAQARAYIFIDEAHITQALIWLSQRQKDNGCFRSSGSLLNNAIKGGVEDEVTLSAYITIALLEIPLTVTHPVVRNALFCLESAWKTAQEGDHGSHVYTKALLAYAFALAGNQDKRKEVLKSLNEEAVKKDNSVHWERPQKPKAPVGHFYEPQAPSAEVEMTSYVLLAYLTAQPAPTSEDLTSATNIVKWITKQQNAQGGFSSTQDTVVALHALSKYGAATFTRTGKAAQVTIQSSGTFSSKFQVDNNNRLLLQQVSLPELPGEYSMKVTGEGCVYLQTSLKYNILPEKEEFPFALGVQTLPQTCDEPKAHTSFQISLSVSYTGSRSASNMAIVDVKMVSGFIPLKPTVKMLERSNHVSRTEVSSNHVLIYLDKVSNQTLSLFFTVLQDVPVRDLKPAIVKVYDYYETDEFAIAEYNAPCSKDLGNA
Assay: Ac-RQAR-AMC activity of protease after 5 min in human citrated plasma, with and without M84R ecotin

B1: modified MT-SP1 CB484 (I41T/Y146E/Q175D/K224F) protease domain (enzyme)
chain: VVGGTDADEGEWPWQVSLHALGQGHTCGASLISPNWLVSAAHCYIDDRGFRYSDPTQWTAFLGLHDQSQRSAPGVQERRLKRIISHPFFNDFTFDYDIALLELEKPAEYSSMVRPICLPDASHVFPAGKAIWVTGWGHTQEGGTGALILQKGEIRVINQTTCENLLPQDITPRMMCVGFLSGGVDSCQGDSGGPLSSVEADGRIFQAGVVSWGDGCAQRNFPGVYTRLPLFRDWIKENTGV
% Unbound by a2M: 94%
